{
  "source": "paper PMC8396234",
  "molecular_target": "GHSR1a-RLuc (ghrelin GHSR1a receptor fused to Renilla luciferase) (human) (UniProt Q92847)",
  "sequence (Q92847 whole entry, the tested form may be a part)": "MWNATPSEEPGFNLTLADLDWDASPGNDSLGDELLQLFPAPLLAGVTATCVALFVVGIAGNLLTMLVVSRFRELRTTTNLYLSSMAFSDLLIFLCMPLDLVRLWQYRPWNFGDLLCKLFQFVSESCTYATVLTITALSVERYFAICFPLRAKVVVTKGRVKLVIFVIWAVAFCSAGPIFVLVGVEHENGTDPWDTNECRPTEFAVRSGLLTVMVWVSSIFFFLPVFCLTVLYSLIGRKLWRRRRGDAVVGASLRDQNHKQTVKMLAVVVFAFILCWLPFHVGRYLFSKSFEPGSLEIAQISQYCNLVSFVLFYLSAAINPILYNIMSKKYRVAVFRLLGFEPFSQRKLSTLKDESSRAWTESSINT",
  "conditions": "scale: % decrease of forskolin-induced cAMP levels",
  "data": [
    {"substance": "Ghrelin (peptide)", "values": [
      {"measurement": "forskolin-induced cAMP levels in HEK-293T cells expressing GHSR1a alone, 200 nM ghrelin", "value": 25}
    ]}
  ]
}
